Data from article PMC8202958 (Cell reports, 2021).

T1: GST-Sla1(1–420aa) (S. cerevisiae, UniProt P32790 1-420)
T1 sequence (looked up): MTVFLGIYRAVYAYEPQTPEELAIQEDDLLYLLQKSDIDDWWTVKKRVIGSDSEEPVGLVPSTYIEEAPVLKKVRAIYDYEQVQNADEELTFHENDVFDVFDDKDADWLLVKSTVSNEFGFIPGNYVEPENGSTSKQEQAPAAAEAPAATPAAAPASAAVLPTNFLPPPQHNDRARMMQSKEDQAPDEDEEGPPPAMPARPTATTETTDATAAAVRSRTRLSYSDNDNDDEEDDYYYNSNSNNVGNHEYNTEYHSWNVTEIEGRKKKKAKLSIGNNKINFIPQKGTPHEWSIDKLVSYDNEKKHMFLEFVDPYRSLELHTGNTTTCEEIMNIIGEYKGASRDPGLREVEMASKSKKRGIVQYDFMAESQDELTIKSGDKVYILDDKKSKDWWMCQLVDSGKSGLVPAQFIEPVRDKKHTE

T2: GST-Sla1(1–420aa, W41S) (S. cerevisiae, UniProt P32790 1-420, W41S)
T2 sequence (looked up): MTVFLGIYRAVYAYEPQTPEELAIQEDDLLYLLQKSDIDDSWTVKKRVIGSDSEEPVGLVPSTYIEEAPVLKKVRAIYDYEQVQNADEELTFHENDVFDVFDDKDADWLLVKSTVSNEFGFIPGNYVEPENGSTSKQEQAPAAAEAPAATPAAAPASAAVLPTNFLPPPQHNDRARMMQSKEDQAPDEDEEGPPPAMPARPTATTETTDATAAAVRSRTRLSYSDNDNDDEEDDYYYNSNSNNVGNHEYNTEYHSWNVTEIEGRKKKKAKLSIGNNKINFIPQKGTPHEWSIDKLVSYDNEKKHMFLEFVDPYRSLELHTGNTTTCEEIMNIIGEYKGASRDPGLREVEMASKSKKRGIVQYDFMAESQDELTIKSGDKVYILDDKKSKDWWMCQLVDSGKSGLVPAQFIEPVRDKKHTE

T3: GST-Sla1(1–420aa, W108S) (S. cerevisiae, UniProt P32790 1-420, W108S)
T3 sequence (looked up): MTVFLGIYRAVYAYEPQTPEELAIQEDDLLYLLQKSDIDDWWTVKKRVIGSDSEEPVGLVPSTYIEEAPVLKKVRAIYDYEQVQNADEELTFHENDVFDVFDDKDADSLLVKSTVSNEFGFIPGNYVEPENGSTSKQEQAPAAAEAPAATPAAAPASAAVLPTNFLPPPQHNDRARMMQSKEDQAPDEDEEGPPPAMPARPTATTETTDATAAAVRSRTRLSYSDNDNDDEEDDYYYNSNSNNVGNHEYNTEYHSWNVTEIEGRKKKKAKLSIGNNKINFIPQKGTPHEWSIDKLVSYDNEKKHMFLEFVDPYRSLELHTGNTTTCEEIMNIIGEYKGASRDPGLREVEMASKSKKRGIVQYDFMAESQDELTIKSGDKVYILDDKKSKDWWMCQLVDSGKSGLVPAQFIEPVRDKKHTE

T4: GST-Lsb3 (S. cerevisiae, UniProt P43603 1-459)
T4 sequence (looked up): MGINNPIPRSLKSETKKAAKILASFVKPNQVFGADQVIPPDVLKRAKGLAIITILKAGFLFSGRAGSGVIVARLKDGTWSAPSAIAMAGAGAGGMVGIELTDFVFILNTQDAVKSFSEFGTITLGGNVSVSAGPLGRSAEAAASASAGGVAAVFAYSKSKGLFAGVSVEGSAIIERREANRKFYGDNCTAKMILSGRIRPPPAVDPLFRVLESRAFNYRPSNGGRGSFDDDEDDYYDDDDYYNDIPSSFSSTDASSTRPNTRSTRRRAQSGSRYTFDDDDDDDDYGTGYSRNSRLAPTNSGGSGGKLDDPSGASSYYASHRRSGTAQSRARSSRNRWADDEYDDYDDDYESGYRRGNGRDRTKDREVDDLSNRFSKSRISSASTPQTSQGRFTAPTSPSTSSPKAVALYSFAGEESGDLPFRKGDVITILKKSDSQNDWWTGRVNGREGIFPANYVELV

T5: GST-Ysc84 (S. cerevisiae, UniProt P32793 1-468)
T5 sequence (looked up): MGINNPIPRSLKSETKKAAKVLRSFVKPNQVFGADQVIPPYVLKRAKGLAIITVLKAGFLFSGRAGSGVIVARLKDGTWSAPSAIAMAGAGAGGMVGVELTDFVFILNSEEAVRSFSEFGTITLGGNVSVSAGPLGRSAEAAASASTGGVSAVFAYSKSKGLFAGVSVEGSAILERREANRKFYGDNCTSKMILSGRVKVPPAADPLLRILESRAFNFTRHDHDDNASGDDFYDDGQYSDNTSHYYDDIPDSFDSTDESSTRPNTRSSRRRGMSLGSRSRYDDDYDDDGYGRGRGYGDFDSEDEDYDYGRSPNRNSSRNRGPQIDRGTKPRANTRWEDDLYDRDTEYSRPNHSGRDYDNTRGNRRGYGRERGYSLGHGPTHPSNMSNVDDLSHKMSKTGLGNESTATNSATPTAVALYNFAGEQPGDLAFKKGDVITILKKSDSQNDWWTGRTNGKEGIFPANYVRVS


Experiments:
Experiment in all cases: pull-down
GST-Sla1(1–420aa) = biological target: T1, GST-Sla1(1–420aa)
GST-Sla1(1–420aa, W41S) = biological target: T2, GST-Sla1(1–420aa, W41S)
GST-Sla1(1–420aa, W108S) = biological target: T3, GST-Sla1(1–420aa, W108S)
GST-Lsb3 = biological target: T4, GST-Lsb3
GST-Ysc84 = biological target: T5, GST-Ysc84

| binding result (GST-Sla1(1–420aa)) | binding result (GST-Sla1(1–420aa, W41S)) | binding result (GST-Sla1(1–420aa, W108S)) | binding result (GST-Lsb3) | binding result (GST-Ysc84) | Binder |
| --- | --- | --- | --- | --- | --- |
| binds | binds | binds | binds | binds | MBP-Ecm25-C-term (361–599aa) (domain or fragment, S. cerevisiae, UniProt P32525 361-599, looked up) EISSPPSSVSSSSTIPVLPKPRKSSPTRYSELGCLTLPRSRSPSPQRSVTSPTYTPVALQNTPVLKPKSSSRNVSSPSFNAKPPLPIKAVTRPQLSLTSNSNTDLALASSSTDTLSSPTKTPSADSLPLSNSSTDLTISDNIKEMVKDEPAKDKNSVETDIFVQQFESLTLVQNAKIKKFDKELQEKKKKNETTSKTADKFSQKGYSDIKASNKVSRLAALYEERLQGLQVMNEMKQRW |
| binds | binds | binds | binds | binds | MBP-Ecm25(361–535aa) (domain or fragment, S. cerevisiae, UniProt P32525 361-535, looked up) EISSPPSSVSSSSTIPVLPKPRKSSPTRYSELGCLTLPRSRSPSPQRSVTSPTYTPVALQNTPVLKPKSSSRNVSSPSFNAKPPLPIKAVTRPQLSLTSNSNTDLALASSSTDTLSSPTKTPSADSLPLSNSSTDLTISDNIKEMVKDEPAKDKNSVETDIFVQQFESLTLVQNA |
